One test deals with CD4-Nav1.6-CTD-NLuc (UniProt Q9UQD0). In words: split reporter (BiFC, NanoBiT); in-cell split-luciferase complementation assay (LCA); HEK293 cells transiently cotransfected with CD4-Nav1.6-CTD-NLuc and CLuc-GSK3β or a mutant; D-luciferin, 37 °C; peak luminescence as percent of the per-plate control; in one set cells treated with vehicle (0.5% DMSO) or 2 μM CHIR99021 for 1 h before the read-out.

A further test concerns the target GSK3β (UniProt P49841). In words: split-luciferase complementation assay in HEK293. The settings on record: reference: vehicle (0.5% DMSO); sites T1936.

Sequence of UniProt Q9UQD0 (Q9UQD0 whole entry): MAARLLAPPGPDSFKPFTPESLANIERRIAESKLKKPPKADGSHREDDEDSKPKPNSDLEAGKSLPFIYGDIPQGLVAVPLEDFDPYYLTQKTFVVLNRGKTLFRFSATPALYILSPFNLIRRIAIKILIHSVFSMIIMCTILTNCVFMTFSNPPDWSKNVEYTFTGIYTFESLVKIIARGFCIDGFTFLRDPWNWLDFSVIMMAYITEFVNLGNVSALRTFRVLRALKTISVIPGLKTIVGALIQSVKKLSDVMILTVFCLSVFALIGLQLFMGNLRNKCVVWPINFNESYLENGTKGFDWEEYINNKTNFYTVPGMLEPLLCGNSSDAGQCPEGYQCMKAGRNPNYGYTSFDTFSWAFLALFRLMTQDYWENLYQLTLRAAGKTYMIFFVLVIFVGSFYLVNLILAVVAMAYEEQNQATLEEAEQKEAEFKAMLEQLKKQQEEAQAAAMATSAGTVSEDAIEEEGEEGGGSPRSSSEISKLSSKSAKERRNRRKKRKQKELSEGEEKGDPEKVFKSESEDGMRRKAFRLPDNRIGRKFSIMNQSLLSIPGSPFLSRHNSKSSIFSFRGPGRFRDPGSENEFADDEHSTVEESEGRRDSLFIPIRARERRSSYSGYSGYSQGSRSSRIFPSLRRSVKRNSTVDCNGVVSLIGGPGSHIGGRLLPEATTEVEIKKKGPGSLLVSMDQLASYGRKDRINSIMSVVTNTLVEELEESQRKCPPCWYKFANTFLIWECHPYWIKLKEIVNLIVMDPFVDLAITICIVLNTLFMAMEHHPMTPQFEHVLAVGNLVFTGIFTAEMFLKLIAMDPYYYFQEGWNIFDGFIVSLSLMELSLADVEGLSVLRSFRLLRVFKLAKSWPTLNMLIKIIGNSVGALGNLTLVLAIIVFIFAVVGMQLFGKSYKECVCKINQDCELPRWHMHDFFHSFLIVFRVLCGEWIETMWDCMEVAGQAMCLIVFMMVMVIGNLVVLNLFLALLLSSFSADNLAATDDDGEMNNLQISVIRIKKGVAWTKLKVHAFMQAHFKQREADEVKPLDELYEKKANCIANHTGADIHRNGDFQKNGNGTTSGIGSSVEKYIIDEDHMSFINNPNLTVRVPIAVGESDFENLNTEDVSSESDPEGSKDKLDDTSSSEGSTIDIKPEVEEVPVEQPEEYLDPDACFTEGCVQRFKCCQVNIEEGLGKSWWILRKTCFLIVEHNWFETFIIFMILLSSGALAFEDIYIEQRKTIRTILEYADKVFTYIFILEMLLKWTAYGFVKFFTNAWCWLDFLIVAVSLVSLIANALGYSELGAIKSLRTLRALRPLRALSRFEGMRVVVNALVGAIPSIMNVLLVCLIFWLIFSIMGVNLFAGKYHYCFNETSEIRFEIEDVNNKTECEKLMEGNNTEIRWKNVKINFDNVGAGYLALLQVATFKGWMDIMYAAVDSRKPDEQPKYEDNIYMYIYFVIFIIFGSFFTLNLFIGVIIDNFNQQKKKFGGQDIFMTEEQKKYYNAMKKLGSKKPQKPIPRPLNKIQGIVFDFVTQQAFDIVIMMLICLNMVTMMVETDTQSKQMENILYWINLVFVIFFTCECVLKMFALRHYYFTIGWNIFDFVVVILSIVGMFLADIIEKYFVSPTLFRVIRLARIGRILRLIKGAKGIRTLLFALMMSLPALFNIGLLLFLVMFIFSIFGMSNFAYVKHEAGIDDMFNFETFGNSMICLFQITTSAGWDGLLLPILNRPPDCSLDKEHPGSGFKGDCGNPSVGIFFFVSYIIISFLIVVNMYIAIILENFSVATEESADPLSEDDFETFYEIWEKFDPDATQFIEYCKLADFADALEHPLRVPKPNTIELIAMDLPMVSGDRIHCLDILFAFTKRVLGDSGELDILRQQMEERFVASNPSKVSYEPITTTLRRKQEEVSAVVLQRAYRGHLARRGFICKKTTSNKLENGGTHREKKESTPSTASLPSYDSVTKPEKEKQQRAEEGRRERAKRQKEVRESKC
Sequence of CLuc-GSK3β (P49841 whole entry): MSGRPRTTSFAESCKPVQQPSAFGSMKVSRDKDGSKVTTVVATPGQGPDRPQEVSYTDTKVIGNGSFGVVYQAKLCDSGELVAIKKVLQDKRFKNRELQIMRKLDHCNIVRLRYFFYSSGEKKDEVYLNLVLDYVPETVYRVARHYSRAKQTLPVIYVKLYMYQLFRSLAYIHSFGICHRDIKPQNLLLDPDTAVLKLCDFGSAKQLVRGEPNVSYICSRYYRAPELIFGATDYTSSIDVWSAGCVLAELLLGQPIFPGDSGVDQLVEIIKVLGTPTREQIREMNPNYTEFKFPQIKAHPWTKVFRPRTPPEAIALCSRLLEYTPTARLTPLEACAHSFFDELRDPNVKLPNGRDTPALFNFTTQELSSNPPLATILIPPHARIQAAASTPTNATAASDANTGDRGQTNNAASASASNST

As to “CLuc-GSK3β (from UniProt P49841 1-420) (enzyme)”, in the test with CD4-Nav1.6-CTD-NLuc, the % Lum with 2 μM CHIR99021 (relative to Nav1.6:GSK3β + DMSO) was determined as 91.2 % Lum and the % Lum with vehicle (0.5% DMSO; the control to which the set is normalised) is 100 % Lum.
Take “CLuc-GSK3βΔABD (from UniProt P49841 1-420) (enzyme)”: in the test with CD4-Nav1.6-CTD-NLuc, the % Lum (luminescence relative to Nav1.6:GSK3β control) was 42 % Lum, the % Lum with 2 μM CHIR99021 (relative to Nav1.6:GSK3β + DMSO) stood at 58.2 % Lum and the % Lum with vehicle (0.5% DMSO) (relative to Nav1.6:GSK3β + DMSO) is 60.9 % Lum.
As for “CLuc-GSK3βΔCTD (from UniProt P49841 1-343) (domain or fragment)”, the % Lum (luminescence relative to Nav1.6:GSK3β control) with CD4-Nav1.6-CTD-NLuc was 167 % Lum.
With “Nav1.6 C-terminal domain (CTD) 2 μM CHIR99021, 1 h”, in the test with GSK3β, the “other: % luminescence of WT GSK3β + DMSO control” value is reported as “same; reference 60.9 ± 3.3” and the percent of reference result is “same; reference 100.0 ± 4.4”.

These data come from paper PMC11847078.
